Assay results from paper PMC9506415.

Molecular target: human fibronectin (human) (UniProt P02751)
Assay: dual-polarization interferometry (DPI); 100 μg/mL FN immobilised on an amine-functionalised AnaChip, sealing agent, then samples injected; Tris-HCl pH 7.4 with 0.1 M NaCl; layer thickness and mass resolved

resolved layer mass after adsorption of gelatin (3.68 ng/mm^2 before): 3.86 ng/mm^2 | resolved layer thickness after adsorption of gelatin (11.60 nm before): 12.6 nm
Substance: bovine gelatin (G9382, type B)
